Measurements: US20210246166A1 (Bayer, published 2021)
Numbered stars: 1 amine (or outer) side, 2 acyl side, 3 side chain; on linkers, the order of the positions; unused ones are H or OH. Bridge positions count the residues as written; N and C are the ends. Square brackets hold non-standard residues; d marks the D form. Ends that are not written are not given here. * marks the point of attachment. Freidinger's Lactam = (2S)-2-[(3R)-3-amino-2-oxopyrrolidin-1-yl]-4-methylpentanoic acid (Freidinger's lactam), CC(C)C[C@@H](C(=O)[*:2])N1CC[C@@H](N[*:1])C1=O; X15 = (3S)‑2‑azaspiro(4.4)nonane‑3‑carboxylic acid, O=C([C@@H]1CC2(CCCC2)CN1[*:1])[*:2]; X11 = (S)‑Piperidine‑3‑carboxylic acid, O=C([C@H]1CCCN([*:1])C1)[*:2]; X14 = (2,4-dioxoimidazolidin-1-yl)acetic acid, O=C1CN(CC(=O)*)C(=O)N1; (R)‑Pyrrolidine‑3‑acetic acid = O=C(C[C@H]1CCN([*:1])C1)[*:2]; Ida = iminodiacetic acid, O=C(CN(CC(=O)[*:3])[*:1])[*:2]; Pro(3S,4R-methano) = O=C(O)[C@H]1NC[C@@H]2C[C@@H]21; Nip(3R) = O=C([C@@H]1CCCN([*:1])C1)[*:2]; Oic = O=C(O)[C@@H]1C[C@@H]2CCCC[C@@H]2N1; βPro(3R) = O=C([C@@H]1CCN([*:1])C1)[*:2]; tBuAla = CC(C)(C)C[C@H](N)C(=O)O; Pen = CC(C)(S)[C@H](N)C(=O)O; Ahx = NCCCCCC(=O)O; Sar = CNCC(=O)O

T1: Recombinant human MASP1 enzyme (fragment corresponding to amino acids 297-699, C-terminal His Tag) (human, UniProt P48740 297-699)
T1 sequence: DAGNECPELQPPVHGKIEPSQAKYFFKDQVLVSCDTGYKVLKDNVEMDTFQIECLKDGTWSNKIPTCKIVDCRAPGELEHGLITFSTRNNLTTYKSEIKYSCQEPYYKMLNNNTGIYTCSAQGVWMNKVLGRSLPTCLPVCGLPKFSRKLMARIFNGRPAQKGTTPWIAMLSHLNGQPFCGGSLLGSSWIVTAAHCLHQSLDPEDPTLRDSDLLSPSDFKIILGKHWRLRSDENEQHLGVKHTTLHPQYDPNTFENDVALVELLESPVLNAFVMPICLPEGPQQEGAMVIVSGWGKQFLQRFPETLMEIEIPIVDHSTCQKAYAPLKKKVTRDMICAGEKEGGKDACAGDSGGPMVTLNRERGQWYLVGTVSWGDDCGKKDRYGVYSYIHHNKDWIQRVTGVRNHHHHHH


Legend:
[1] = target: Recombinant human MASP2 enzyme (fragment corresponding to amino acids 297-686, C-terminal His Tag) (human, UniProt O00187 297-686); test: cell-based or functional assay
[2] = target: T1, Recombinant human MASP1 enzyme …; test: cell-based or functional assay

Sequence of Recombinant human MASP2 enzyme (fragment corresponding to amino acids 297-686, C-terminal His Tag) (O00187 other isoform, or with tags, fused parts or gaps limits assumed): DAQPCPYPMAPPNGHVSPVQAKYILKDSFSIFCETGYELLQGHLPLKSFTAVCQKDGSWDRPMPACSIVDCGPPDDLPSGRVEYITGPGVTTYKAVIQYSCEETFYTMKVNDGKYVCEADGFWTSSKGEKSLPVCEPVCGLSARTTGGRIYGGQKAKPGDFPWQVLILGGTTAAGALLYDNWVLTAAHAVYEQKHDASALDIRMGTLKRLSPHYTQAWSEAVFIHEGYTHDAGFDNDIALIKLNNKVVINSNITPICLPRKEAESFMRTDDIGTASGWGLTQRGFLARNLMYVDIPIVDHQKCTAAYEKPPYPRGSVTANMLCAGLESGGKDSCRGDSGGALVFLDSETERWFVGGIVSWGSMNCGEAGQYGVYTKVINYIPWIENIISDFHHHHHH

Row | human MASP2 IC50 [1] [nM] | human MASP1 IC50 [2] [nM] | Binder
1 | 120 | 0.41 | [Sar]ICSRSLP[Oic]I[Pen]IPD[Ahx]-OH (disulfide 3-11; N-terminus assumed; SMILES CC[C@H](C)[C@H](NC(=O)CNC)C(=O)N[C@H]1CSSC(C)(C)[C@@H](C(=O)N[C@H](C(=O)N2CCC[C@H]2C(=O)N[C@@H](CC(=O)O)C(=O)NCCCCCC(=O)O)[C@@H](C)CC)NC(=O)[C@H]([C@@H](C)CC)NC(=O)[C@@H]2C[C@@H]3CCCC[C@@H]3N2C(=O)[C@@H]2CCCN2C(=O)[C@H](CC(C)C)NC(=O)[C@H](CO)NC(=O)[C@H](CCCNC(=N)N)NC(=O)[C@H](CO)NC1=O) [((N-Me)G)-IC+SRSLP-(Oic)-I-(Pen)+IPD-(Ahx)-OH]
2 | 96 | 23 | [Sar]ICSRSLP[Oic]I[Pen]IP[Freidinger's Lactam]-OH (disulfide 3-11; N-terminus assumed; SMILES CC[C@H](C)[C@H](NC(=O)CNC)C(=O)N[C@H]1CSSC(C)(C)[C@@H](C(=O)N[C@H](C(=O)N2CCC[C@H]2C(=O)N[C@@H]2CCN([C@@H](CC(C)C)C(=O)O)C2=O)[C@@H](C)CC)NC(=O)[C@H]([C@@H](C)CC)NC(=O)[C@@H]2C[C@@H]3CCCC[C@@H]3N2C(=O)[C@@H]2CCCN2C(=O)[C@H](CC(C)C)NC(=O)[C@H](CO)NC(=O)[C@H](CCCNC(=N)N)NC(=O)[C@H](CO)NC1=O) [((N-Me)G)-IC+SRSLP-(Oic)-I-(Pen)+IP-(Freidinger's Lactam)-OH]
3 | 260 | 3.8 | [Sar]ICSRSLP[Oic]I[Pen]IPDK-OH (disulfide 3-11; N-terminus assumed; SMILES CC[C@H](C)[C@H](NC(=O)CNC)C(=O)N[C@H]1CSSC(C)(C)[C@@H](C(=O)N[C@H](C(=O)N2CCC[C@H]2C(=O)N[C@@H](CC(=O)O)C(=O)N[C@@H](CCCCN)C(=O)O)[C@@H](C)CC)NC(=O)[C@H]([C@@H](C)CC)NC(=O)[C@@H]2C[C@@H]3CCCC[C@@H]3N2C(=O)[C@@H]2CCCN2C(=O)[C@H](CC(C)C)NC(=O)[C@H](CO)NC(=O)[C@H](CCCNC(=N)N)NC(=O)[C@H](CO)NC1=O) [((N-Me)G)-IC+SRSLP-(Oic)-I-(Pen)+IPDK-OH]
4 | 104 | 6.6 | [Sar]ICSRS[tBuAla]P[Pro(3S,4R-methano)]I[Pen]IPD-OH (disulfide 3-11; N-terminus assumed; SMILES CC[C@H](C)[C@H](NC(=O)CNC)C(=O)N[C@H]1CSSC(C)(C)[C@@H](C(=O)N[C@H](C(=O)N2CCC[C@H]2C(=O)N[C@@H](CC(=O)O)C(=O)O)[C@@H](C)CC)NC(=O)[C@H]([C@@H](C)CC)NC(=O)[C@@H]2[C@H]3C[C@H]3CN2C(=O)[C@@H]2CCCN2C(=O)[C@H](CC(C)(C)C)NC(=O)[C@H](CO)NC(=O)[C@H](CCCNC(=N)N)NC(=O)[C@H](CO)NC1=O) [((N-Me)G)-IC+SRS-((tBu)A)-P-((1S,2S,5R)-3-azabicyclo[3.1.0]hexane-2-carboxylic acid)-I-(Pen)+IPD-OH]
5 | 166 | 28 | [Sar]ICSRSLP[Oic]I[Pen]IP[βPro(3R)]-OH (disulfide 3-11; N-terminus assumed; SMILES CC[C@H](C)[C@H](NC(=O)CNC)C(=O)N[C@H]1CSSC(C)(C)[C@@H](C(=O)N[C@H](C(=O)N2CCC[C@H]2C(=O)N2CC[C@@H](C(=O)O)C2)[C@@H](C)CC)NC(=O)[C@H]([C@@H](C)CC)NC(=O)[C@@H]2C[C@@H]3CCCC[C@@H]3N2C(=O)[C@@H]2CCCN2C(=O)[C@H](CC(C)C)NC(=O)[C@H](CO)NC(=O)[C@H](CCCNC(=N)N)NC(=O)[C@H](CO)NC1=O) [((N-Me)G)-IC+SRSLP-(Oic)-I-(Pen)+IP-((R)-Pyrrolidine-3-carboxylic acid)-OH]
6 | 55 | 6.6 | [Sar]ICSRSLP[Oic]I[Pen]IPX-OH (disulfide 3-11; not fully specified (residue 14); printed as ((N-Me)G)-IC+SRSLP-(Oic)-I-(Pen)+IP-(*Dap)-OH; also: C-terminal Dap joined through its 3-amino group) [((N-Me)G)-IC+SRSLP-(Oic)-I-(Pen)+IP-(*Dap)-OH]
7 | 116 | 6.78 | [Sar]ICSRSLP[Oic]I[Pen]IP[(R)‑Pyrrolidine‑3‑acetic acid]-OH (disulfide 3-11; N-terminus assumed; SMILES CC[C@H](C)[C@H](NC(=O)CNC)C(=O)N[C@H]1CSSC(C)(C)[C@@H](C(=O)N[C@H](C(=O)N2CCC[C@H]2C(=O)N2CC[C@H](CC(=O)O)C2)[C@@H](C)CC)NC(=O)[C@H]([C@@H](C)CC)NC(=O)[C@@H]2C[C@@H]3CCCC[C@@H]3N2C(=O)[C@@H]2CCCN2C(=O)[C@H](CC(C)C)NC(=O)[C@H](CO)NC(=O)[C@H](CCCNC(=N)N)NC(=O)[C@H](CO)NC1=O) [((N-Me)G)-IC+SRSLP-(Oic)-I-(Pen)+IP-((R)-Pyrrolidine-3-acetic acid)-OH]
8 | 261 | 17.1 | [Sar]ICSRS[tBuAla]P[X15]I[Pen]IPD-OH (disulfide 3-11; N-terminus assumed; SMILES CC[C@H](C)[C@H](NC(=O)CNC)C(=O)N[C@H]1CSSC(C)(C)[C@@H](C(=O)N[C@H](C(=O)N2CCC[C@H]2C(=O)N[C@@H](CC(=O)O)C(=O)O)[C@@H](C)CC)NC(=O)[C@H]([C@@H](C)CC)NC(=O)[C@@H]2CC3(CCCC3)CN2C(=O)[C@@H]2CCCN2C(=O)[C@H](CC(C)(C)C)NC(=O)[C@H](CO)NC(=O)[C@H](CCCNC(=N)N)NC(=O)[C@H](CO)NC1=O) [((N-Me)G)-IC+SRS-((tBu)A)-P-((3S)-2-azaspiro[4.4]nonane-3-carboxylic acid)-I-(Pen)+IPD-OH]
9 | 40 | 0.72 | [Sar]ICSRSLP[Oic]I[Pen]IPDD-OH (disulfide 3-11; N-terminus assumed; SMILES CC[C@H](C)[C@H](NC(=O)CNC)C(=O)N[C@H]1CSSC(C)(C)[C@@H](C(=O)N[C@H](C(=O)N2CCC[C@H]2C(=O)N[C@@H](CC(=O)O)C(=O)N[C@@H](CC(=O)O)C(=O)O)[C@@H](C)CC)NC(=O)[C@H]([C@@H](C)CC)NC(=O)[C@@H]2C[C@@H]3CCCC[C@@H]3N2C(=O)[C@@H]2CCCN2C(=O)[C@H](CC(C)C)NC(=O)[C@H](CO)NC(=O)[C@H](CCCNC(=N)N)NC(=O)[C@H](CO)NC1=O) [((N-Me)G)-IC+SRSLP-(Oic)-I-(Pen)+IPDD-OH]
10 | 140 | 8.2 | [X11]ICSRSLP[Oic]I[Pen]I-OH (disulfide 3-11; N-terminus assumed; SMILES CC[C@H](C)[C@H](NC(=O)[C@H]1NC(=O)[C@H]([C@@H](C)CC)NC(=O)[C@@H]2C[C@@H]3CCCC[C@@H]3N2C(=O)[C@@H]2CCCN2C(=O)[C@H](CC(C)C)NC(=O)[C@H](CO)NC(=O)[C@H](CCCNC(=N)N)NC(=O)[C@H](CO)NC(=O)[C@@H](NC(=O)[C@@H](NC(=O)[C@H]2CCCNC2)[C@@H](C)CC)CSSC1(C)C)C(=O)O) [((S)-Piperidine-3-carboxylic acid)-IC+SRSLP-(Oic)-I-(Pen)+I-OH]
11 | 210 | 5.1 | AICSRSLP[Oic]I[Pen]IP[βDap]-OH (disulfide 3-11; also: C-terminal Dap bonded through its side-chain amino group) [AIC+SRSLP-(Oic)-I-(Pen)+IP-(*Dap)-OH]
12 | 45 | 17 | X14-ICSRSLP[Oic]I[Pen]IPD-OH (disulfide 2-10; SMILES CC[C@H](C)[C@H](NC(=O)CN1CC(=O)NC1=O)C(=O)N[C@H]1CSSC(C)(C)[C@@H](C(=O)N[C@H](C(=O)N2CCC[C@H]2C(=O)N[C@@H](CC(=O)O)C(=O)O)[C@@H](C)CC)NC(=O)[C@H]([C@@H](C)CC)NC(=O)[C@@H]2C[C@@H]3CCCC[C@@H]3N2C(=O)[C@@H]2CCCN2C(=O)[C@H](CC(C)C)NC(=O)[C@H](CO)NC(=O)[C@H](CCCNC(=N)N)NC(=O)[C@H](CO)NC1=O) [((2,4-dioxoimidazolidin-1-yl)acetic acid)-IC+SRSLP-(Oic)-I-(Pen)+IPD-OH]
13 | 45 | 1 | [Sar]ICSRSLP[Oic]I[Pen]IPGD-OH (disulfide 3-11; N-terminus assumed; SMILES CC[C@H](C)[C@H](NC(=O)CNC)C(=O)N[C@H]1CSSC(C)(C)[C@@H](C(=O)N[C@H](C(=O)N2CCC[C@H]2C(=O)NCC(=O)N[C@@H](CC(=O)O)C(=O)O)[C@@H](C)CC)NC(=O)[C@H]([C@@H](C)CC)NC(=O)[C@@H]2C[C@@H]3CCCC[C@@H]3N2C(=O)[C@@H]2CCCN2C(=O)[C@H](CC(C)C)NC(=O)[C@H](CO)NC(=O)[C@H](CCCNC(=N)N)NC(=O)[C@H](CO)NC1=O) [((N-Me)G)-IC+SRSLP-(Oic)-I-(Pen)+IPGD-OH]
14 | 200 | 4.3 | [Nip(3R)]ICSRSLP[Oic]I[Pen]I-OH (disulfide 3-11; N-terminus assumed; SMILES CC[C@H](C)[C@H](NC(=O)[C@H]1NC(=O)[C@H]([C@@H](C)CC)NC(=O)[C@@H]2C[C@@H]3CCCC[C@@H]3N2C(=O)[C@@H]2CCCN2C(=O)[C@H](CC(C)C)NC(=O)[C@H](CO)NC(=O)[C@H](CCCNC(=N)N)NC(=O)[C@H](CO)NC(=O)[C@@H](NC(=O)[C@@H](NC(=O)[C@@H]2CCCNC2)[C@@H](C)CC)CSSC1(C)C)C(=O)O) [((R)-Piperidine-3-carboxylic acid)-IC+SRSLP-(Oic)-I-(Pen)+I-OH]
15 | 65 | 7.5 | [dP]ICSRSLP[Oic]I[Pen]IP[Ida]-OH (disulfide 3-11; also: HCl salt) [pIC+SRSLP-(Oic)-I-(Pen)+IP-(Ida)-OH (HCl salt)]
